From PMC8932525 (The Journal of Cell Biology, 2022)

T1: importin-5 (Imp5) (UniProt O00410 1-1097)
T1 sequence (looked up): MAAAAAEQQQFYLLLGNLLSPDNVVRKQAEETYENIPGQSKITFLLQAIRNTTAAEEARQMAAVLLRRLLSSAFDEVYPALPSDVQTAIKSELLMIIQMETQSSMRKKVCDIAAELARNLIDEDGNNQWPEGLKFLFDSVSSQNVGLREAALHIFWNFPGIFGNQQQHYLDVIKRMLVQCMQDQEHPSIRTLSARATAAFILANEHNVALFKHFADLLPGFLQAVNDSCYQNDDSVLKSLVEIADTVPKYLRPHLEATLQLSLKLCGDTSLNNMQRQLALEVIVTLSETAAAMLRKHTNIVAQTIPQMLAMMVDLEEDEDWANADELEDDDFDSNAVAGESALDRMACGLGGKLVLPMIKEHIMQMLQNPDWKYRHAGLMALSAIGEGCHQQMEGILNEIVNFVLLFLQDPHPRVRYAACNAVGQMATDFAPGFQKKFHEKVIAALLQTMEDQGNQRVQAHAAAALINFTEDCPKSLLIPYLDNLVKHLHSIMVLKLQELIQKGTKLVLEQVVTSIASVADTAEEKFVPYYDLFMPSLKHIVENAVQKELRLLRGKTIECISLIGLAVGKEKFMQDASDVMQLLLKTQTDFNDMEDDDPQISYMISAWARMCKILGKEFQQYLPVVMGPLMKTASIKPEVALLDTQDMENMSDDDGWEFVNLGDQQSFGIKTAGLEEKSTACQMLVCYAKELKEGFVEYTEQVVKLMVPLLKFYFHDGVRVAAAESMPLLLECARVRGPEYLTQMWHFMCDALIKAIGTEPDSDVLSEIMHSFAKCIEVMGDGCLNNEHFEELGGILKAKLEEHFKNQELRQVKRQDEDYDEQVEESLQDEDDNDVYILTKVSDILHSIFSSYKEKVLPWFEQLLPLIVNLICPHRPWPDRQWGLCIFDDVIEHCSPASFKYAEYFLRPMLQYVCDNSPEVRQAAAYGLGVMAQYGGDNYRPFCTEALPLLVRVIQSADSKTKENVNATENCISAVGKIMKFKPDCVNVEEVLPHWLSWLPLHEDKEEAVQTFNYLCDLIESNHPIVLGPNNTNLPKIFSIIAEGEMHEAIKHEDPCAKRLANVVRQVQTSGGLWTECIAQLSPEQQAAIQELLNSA


What was measured:
[1] = molecular target: nuclear pore complexes (NPCs) in endoKap-depleted digitonin-permeabilized HeLa cells (human (endogenous in HeLa)); test: permeabilized cell assay, confocal fluorescence microscopy
[2] = molecular target: T1, importin-5 (Imp5); test: SPR
[3] = molecular target: CRM1 (exportin 1/chromosomal maintenance 1) (UniProt O14980 1-1071); test: SPR
CRM1 (exportin 1/chromosomal maintenance 1), sequence (O14980 whole entry): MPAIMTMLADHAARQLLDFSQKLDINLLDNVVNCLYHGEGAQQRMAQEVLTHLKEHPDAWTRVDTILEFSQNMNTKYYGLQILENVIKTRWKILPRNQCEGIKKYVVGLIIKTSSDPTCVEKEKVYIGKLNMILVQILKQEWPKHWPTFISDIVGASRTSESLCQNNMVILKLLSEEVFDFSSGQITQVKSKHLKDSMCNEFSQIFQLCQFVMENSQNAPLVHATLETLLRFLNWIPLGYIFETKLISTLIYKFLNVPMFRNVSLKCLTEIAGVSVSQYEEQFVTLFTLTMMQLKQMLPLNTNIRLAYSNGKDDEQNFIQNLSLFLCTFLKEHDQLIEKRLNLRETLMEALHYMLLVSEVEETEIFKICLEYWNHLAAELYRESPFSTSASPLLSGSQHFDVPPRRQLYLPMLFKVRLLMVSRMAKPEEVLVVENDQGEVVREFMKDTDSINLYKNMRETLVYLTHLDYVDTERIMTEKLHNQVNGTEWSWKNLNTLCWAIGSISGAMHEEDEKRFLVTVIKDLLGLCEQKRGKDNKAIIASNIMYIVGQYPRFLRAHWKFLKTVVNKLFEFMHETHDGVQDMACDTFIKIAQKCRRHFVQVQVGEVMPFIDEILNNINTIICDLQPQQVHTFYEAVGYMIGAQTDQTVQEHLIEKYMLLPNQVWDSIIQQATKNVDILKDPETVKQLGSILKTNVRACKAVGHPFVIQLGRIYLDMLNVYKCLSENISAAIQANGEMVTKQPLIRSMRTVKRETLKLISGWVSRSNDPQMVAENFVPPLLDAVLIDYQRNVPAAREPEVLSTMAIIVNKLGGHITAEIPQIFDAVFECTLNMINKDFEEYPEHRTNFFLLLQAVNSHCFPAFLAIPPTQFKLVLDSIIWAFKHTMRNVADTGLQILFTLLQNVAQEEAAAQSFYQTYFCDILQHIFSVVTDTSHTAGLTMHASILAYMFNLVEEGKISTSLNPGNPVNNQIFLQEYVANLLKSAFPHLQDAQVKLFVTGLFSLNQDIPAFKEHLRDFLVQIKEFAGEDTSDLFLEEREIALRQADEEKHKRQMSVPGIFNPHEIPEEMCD

CRM1–Alexa Fluor 647, sequence (O14980 whole entry): as above
Kapβ1–Alexa Fluor 488, sequence (Q14974 whole entry): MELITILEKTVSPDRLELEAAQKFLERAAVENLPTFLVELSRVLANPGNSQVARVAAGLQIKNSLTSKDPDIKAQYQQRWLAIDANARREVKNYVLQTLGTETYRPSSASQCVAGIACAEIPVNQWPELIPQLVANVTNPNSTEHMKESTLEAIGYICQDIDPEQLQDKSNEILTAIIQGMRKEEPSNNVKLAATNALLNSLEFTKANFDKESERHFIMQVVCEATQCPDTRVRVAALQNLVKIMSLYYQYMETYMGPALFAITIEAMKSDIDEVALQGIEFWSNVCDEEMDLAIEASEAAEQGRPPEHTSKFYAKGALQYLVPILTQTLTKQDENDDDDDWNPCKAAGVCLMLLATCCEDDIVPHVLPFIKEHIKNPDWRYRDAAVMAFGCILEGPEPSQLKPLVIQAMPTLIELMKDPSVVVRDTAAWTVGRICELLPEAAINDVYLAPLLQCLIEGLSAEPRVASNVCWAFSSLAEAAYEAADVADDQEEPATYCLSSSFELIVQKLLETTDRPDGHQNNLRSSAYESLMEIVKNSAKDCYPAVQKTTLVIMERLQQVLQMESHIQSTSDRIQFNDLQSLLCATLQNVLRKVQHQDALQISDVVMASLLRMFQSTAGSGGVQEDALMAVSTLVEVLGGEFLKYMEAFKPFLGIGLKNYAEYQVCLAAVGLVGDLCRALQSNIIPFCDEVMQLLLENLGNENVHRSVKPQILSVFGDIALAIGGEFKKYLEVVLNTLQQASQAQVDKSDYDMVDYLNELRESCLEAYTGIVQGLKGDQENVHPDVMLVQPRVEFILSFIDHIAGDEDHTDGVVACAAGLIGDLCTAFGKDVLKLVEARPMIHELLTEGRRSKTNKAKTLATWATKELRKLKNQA

Row | Molecule | Kd [1] | relative occupancy with 10 µM exoImp5 [1] | binding result [2] | Kd [3] | further results
1 | CRM1–Alexa Fluor 647 (from UniProt O14980 1-1071) (natural protein) | 500 nM | 59% | – | – | K (D,NPC) in the presence of 10 µM exoKapβ1 [1]: 2.8 µM; reduction of relative occupancy from the standalone value, with 10 µM exoKapβ1 [1]: 51%
2 | Kapβ1–Alexa Fluor 488 (from UniProt Q14974 1-876) (natural protein) | 3100 nM | 72% | – | – | –
3 | cNup214 (cysteine-tagged FG domain of human Nup214) (domain or fragment, UniProt P35658 1809-2090, looked up) SPGFGQGGSVFGGTSAATTTAATSGFSFCQASGFGSSNTGSVFGQAASTGGIVFGQQSSSSSGSVFGSGNTGRGGGFFSGLGGKPSQDAANKNPFSSASGGFGSTATSNTSNLFGNSGAKTFGGFASSSFGEQKPTGTFSSGGGSVASQGFGFSSPNKTGGFGAAPVFGSPPTFGGSPGFGGVPAFGSAPAFTSPLGSTGGKVFGEGTAAASAGGFGFGSSSNTTSFGTLASQNAPTFGSLSQQTSGFGTQSSGFSGFGSGTGGFSFGSNNSSVQGFGGWRS | – | – | binds | 110 ± 20 nM | –
4 | cNup62 (cysteine-tagged FG domain of human Nup62) (domain or fragment, UniProt P37198 1-240, looked up) MSGFNFGGTGAPTGGFTFGTAKTATTTPATGFSFSTSGTGGFNFGAPFQPATSTPSTGLFSLATQTPATQTTGFTFGTATLASGGTGFSLGIGASKLNLSNTAATPAMANPSGFGLGSSNLTNAISSTVTSSQGTAPTGFVFGPSTTSVAPATTSGGFSFTGGSTAQPSGFNIGSAGNSAQPTAPATLPFTPATPAATTAGATQPAAPTPTATITSTGPSLFASIATAPTSSATTGLSLC | – | – | binds | 2860 ± 380 nM | –
5 | cNup98 (cysteine-tagged FG domain of human Nup98) (domain or fragment, UniProt P52948 1-498, looked up) MFNKSFGTPFGGGTGGFGTTSTFGQNTGFGTTSGGAFGTSAFGSSNNTGGLFGNSQTKPGGLFGTSSFSQPATSTSTGFGFGTSTGTANTLFGTASTGTSLFSSQNNAFAQNKPTGFGNFGTSTSSGGLFGTTNTTSNPFGSTSGSLFGPSSFTAAPTGTTIKFNPPTGTDTMVKAGVSTNISTKHQCITAMKEYESKSLEELRLEDYQANRKGPQNQVGAGTTTGLFGSSPATSSATGLFSSSTTNSGFAYGQNKTAFGTSTTGFGTNPGGLFGQQNQQTTSLFSKPFGQATTTQNTGFSFGNTSTIGQPSTNTMGLFGVTQASQPGGLFGTATNTSTGTAFGTGTGLFGQTNTGFGAVGSTLFGNNKLTTFGSSTTSAPSFGTTSGGLFGNKPTLTLGTNTNTSNFGFGTNTSGNSIFGSKPAPGTLGTGLGAGFGTALGAGQASLFGNNQPKIGGPLGTGAFGAPGFNTTTATLGFGAPQAPVALTDPNASAAQQ | – | – | binds | – | –
6 | cNup153 (cysteine-tagged FG domain of human Nup153) (domain or fragment, UniProt P49790 874-1475, looked up) CESAKPGTKSGFKGFDTSSSSSNSAASSSFKFGVSSSSSGPSQTLTSTGNFKFGDQGGFKIGVSSDSGSINPMSEGFKFSKPIGDFKFGVSSESKPEEVKKDSKNDNFKFGLSSGLSNPVSLTPFQFGVSNLGQEEKKEELPKSSSAGFSFGTGVINSTPAPANTIVTSENKSSFNLGTIETKSASVAPFTCKTSEAKKEEMPATKGGFSFGNVEPASLPSASVFVLGRTEEKQQEPVTSTSLVFGKKADNEEPKCQPVFSFGNSEQTKDENSSKSTFSFSMTKPSEKESEQPAKATFAFGAQTSTTADQGAAKPVFSFLNNSSSSSSTPATSAGGGIFGSSTSSSNPPVATFVFGQSSNPVSSSAFGNTAESSTSQSLLFSQDSKLATTSSTGTAVTPFVFGPGASSNNTTTSGFGFGATTTSSSAGSSFVFGTGPSAPSASPAFGANQTPTFGQSQGASQPNPPGFGSISSSTALFPTGSQPAPPTFGTVSSSSQPPVFGQQPSQSAFGSGTTPNSSSAFQFGSSTTNFNFTNNSPSGVFTFGANSSTPAASAQPSGSGGFPFNQSPAAFTVGSNGKNVFSSSGTSFSGRKIKTAVRRRK | – | – | binds | – | –
